Source: patent publication US20100184701A1 (TREVENA, published 2010)

T1: human angiotensin 2 type 1 receptor (human, UniProt P30556 1-359)
T1 sequence (looked up): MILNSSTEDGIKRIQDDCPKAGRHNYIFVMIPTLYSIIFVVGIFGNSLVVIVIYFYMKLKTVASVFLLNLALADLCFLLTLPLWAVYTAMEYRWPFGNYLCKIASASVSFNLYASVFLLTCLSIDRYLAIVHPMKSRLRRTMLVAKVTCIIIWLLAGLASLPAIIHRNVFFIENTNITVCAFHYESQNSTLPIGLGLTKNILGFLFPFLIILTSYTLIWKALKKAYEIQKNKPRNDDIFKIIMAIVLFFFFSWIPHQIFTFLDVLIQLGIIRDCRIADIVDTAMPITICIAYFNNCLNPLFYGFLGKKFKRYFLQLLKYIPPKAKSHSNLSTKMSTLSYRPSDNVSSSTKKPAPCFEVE

T2: rat angiotensin 2 type 1 receptor (rat, UniProt P25095 1-359)
T2 sequence (looked up): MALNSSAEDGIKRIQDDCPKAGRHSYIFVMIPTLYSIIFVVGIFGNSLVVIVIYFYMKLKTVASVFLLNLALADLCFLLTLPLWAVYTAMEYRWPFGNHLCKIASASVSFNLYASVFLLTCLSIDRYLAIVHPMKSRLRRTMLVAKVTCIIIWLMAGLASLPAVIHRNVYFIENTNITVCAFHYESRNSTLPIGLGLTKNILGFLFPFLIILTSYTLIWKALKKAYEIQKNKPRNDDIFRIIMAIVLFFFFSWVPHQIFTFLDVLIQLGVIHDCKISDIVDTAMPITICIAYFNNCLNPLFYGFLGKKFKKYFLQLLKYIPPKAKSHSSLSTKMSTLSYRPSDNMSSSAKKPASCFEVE


What was measured:
[1] = target: T1, human angiotensin 2 type 1 receptor; assay: cell-based or functional assay
[2] = target: T2, rat angiotensin 2 type 1 receptor; assay: cell-based or functional assay

IP One EC50 (M) [1] [M] | b-arrestin2 Max (%) [1] [%] | IP One EC50 (M) [2] [M] | b-arrestin2 Max (%) [2] [%] | b-arrestin2 EC50 [1] [µM] | IP One Max (%) [2] [%] | b-arrestin2 EC50 [2] [µM] | IP One Max (%) [1] [%] | Binder
> 1e-05 | 43.4 | > 1e-05 | 165 | – | – | – | – | RVYIHP (C-terminal amide (NH2)) [SEQ ID NO: 13]
> 1e-05 | 37.8 | > 1e-05 | 67.3 | – | – | – | – | DRVYFHP (N-Me-Asp (N-methyl-L-aspartic acid) at 1; C-terminal amide (NH2)) [SEQ ID NO: 65]
> 1e-05 | 38.3 | > 1e-05 | 60.6 | – | – | – | – | ARVYIHPA (NM-D-Ala (N-methyl-D-alanine) at 1; D-Ala at 8) [SEQ ID NO: 82]
> 1e-05 | 35.9 | > 1e-05 | 50.1 | – | – | – | – | DRVYFHP (C-terminal amide (NH2)) [SEQ ID NO: 63]
> 1e-05 | 48.7 | – | 81.1 | 0.33 | 9.94 | 0.26 | – | DRVYYHP (D-Asp at 1; C-terminal amide (NH2)) [SEQ ID NO: 58]
> 1e-05 | 37.5 | > 1e-05 | 60.4 | 1.2 | – | 2.1 | – | DRVYYHP (N-Me-Asp (N-methyl-L-aspartic acid) at 1; C-terminal amide (NH2)) [SEQ ID NO: 61]
> 1e-05 | 19.5 | > 1e-05 | 27.8 | 1.4 | – | – | – | ERVYYHP (C-terminal amide (NH2)) [SEQ ID NO: 59]
– | 42.1 | – | 64.4 | – | 35.3 | – | 10 | DRVYYHP (C-terminal amide (NH2)) [SEQ ID NO: 57]
> 1e-05 | 24.7 | > 1e-05 | 44.2 | – | – | – | – | ERVYYHP (N-Me-Glu (N-methyl-L-glutamic acid) at 1; C-terminal amide (NH2)) [SEQ ID NO: 62]
> 1e-05 | 30.6 | > 1e-05 | 58.5 | – | – | 10 | – | ERVYFHP (N-Me-Glu (N-methyl-L-glutamic acid) at 1; C-terminal amide (NH2)) [SEQ ID NO: 66]
> 1e-05 | 44 | > 1e-05 | 79.3 | – | – | 0.18 | – | ERVYYHP (D-Glu at 1; C-terminal amide (NH2)) [SEQ ID NO: 60]
> 1e-05 | 20.4 | > 1e-05 | 26.9 | 1.2 | – | – | – | ERVYFHP (C-terminal amide (NH2)) [SEQ ID NO: 64]
